According to patent publication US20250270343A1 (Alector, published 2025):
Where a chain is given by its changes, count along the chain named.

T1: mouse GPNMB endogenously expressed on B16F10 cells (mouse, UniProt Q99P91 23-574)
T1 construct: whole, on cells; also called moGPNMB
T1 sequence (looked up): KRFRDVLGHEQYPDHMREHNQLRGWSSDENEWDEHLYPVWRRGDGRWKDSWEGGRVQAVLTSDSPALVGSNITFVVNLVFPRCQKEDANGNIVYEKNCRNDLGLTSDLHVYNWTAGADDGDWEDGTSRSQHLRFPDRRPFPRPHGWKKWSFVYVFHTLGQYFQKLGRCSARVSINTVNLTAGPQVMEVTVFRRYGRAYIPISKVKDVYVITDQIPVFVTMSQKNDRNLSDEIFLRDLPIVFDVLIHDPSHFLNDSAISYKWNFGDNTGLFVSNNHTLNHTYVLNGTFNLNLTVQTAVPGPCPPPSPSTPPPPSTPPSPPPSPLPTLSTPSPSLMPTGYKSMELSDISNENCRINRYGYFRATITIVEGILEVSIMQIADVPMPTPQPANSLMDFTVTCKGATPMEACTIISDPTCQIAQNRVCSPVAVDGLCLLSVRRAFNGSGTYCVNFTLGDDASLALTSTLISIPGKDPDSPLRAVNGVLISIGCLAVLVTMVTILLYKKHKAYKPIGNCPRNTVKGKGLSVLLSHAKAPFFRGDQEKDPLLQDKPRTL

T2: soluble mouse GPNMB (recombinant extracellular domain) (mouse, UniProt Q99P91 23-502)
T2 construct: also called moGPNMB; not shown: C-terminal polyhistidine or Avi-His tag
T2 sequence: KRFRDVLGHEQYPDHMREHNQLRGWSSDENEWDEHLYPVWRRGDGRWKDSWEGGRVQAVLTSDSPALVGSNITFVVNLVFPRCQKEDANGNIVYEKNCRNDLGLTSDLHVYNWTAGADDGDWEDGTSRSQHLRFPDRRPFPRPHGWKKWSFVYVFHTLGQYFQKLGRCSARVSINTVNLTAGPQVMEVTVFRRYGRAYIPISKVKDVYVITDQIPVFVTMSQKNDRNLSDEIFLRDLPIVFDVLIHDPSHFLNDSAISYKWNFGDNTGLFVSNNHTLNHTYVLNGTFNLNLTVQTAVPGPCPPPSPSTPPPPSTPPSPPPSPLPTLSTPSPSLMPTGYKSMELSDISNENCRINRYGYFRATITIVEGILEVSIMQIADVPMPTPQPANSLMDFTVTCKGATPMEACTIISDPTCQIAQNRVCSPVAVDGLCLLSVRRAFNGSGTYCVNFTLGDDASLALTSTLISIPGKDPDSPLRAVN

T3: full-length untagged human GPNMB expressed on cells (human, UniProt Q14956 23-572)
T3 construct: also used here for GPNMB on human monocyte-derived macrophages in the functional assays; also called huGPNMB; Freestyle293-huGPNMB+
T3 sequence: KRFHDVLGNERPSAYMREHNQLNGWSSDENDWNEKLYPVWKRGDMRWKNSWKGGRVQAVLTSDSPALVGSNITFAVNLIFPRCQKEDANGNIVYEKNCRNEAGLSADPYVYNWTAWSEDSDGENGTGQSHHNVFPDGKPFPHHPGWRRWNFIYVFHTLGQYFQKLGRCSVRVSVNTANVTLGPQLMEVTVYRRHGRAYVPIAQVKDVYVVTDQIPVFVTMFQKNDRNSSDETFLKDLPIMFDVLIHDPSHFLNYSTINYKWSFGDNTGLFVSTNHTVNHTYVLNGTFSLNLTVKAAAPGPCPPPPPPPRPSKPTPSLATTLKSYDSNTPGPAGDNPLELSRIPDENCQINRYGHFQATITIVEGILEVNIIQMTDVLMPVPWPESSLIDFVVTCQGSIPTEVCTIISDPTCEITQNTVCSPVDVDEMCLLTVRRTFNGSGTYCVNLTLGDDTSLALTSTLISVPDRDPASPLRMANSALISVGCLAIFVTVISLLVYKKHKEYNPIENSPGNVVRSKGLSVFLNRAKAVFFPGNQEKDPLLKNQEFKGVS

B1: anti-GPNMB antibody GPN-41 (antibody, human IgG1, V domains shown)
VH: QLQLQQSGTEVVKPGASVKIPCKASGYAFSSYWMNWVKQRPGKGLEWIGQIYPGDGDTNDNGKFEGKATLTVDKSSNTAYIQLSSLTSEDSAVYFCARSPLHLRGSMDYWGQGTSVTVSS
VL: SIVMTQTPKFLLVSAGDRVTITCKASQSVSNDVAWFQQKPGQSPELLIYSASNRYTGVPDRFTASGYGTDFTFTISAVQAEDLAVYFCQQNYYSPFTFGGGTRLEIK
notes: chimeric
B2: anti-GPNMB antibody GPN-65 (antibody, human IgG1, V domains shown)
VH: B1 VH
VL: B1 VL with A64G, A77T
notes: chimeric
B3: anti-GPNMB antibody GPN-42 (antibody, human IgG1, V domains shown)
VH: DVKLVESGEDLVKPGGSLKLSCAASGFTFSSYAMSWVRQTPEKRLEWVAYISSGGDYIYYADTVKGRFTISRDNARNTLYLQMSSLKSEDTAMYYCTRDRYYDYDVRDYYTMDYWGQGTSVTVSS
VL: DVMMTQTPLSLPVSLGDQASISCRSSQSLVHSNGNTYLHWFLQKPGQSPKLLIFRVSNRFSGVPDRFSGRGSGTDFTLKISRVEAEDLGVYFCSQTTHVPRTFGGGTTLEIK
notes: chimeric
B4: anti-GPNMB antibody GPN-52 (antibody, human IgG1, V domains shown)
VH: DVQLQESGPGLVKPSQTVFLTCTVTGISITTGNYRWSWIRQFPGNKLEWIGYIYYSGTITYNPSLTSRITITRDTPKNEFFLEMNSLTAEDTATYYCARDLTHWYFDVWGTGTTVTVSS
VL: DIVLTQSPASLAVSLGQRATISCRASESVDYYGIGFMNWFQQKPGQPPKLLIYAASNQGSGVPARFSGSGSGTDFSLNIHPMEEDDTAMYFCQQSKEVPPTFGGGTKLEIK
notes: chimeric
B5: anti-GPNMB antibody GPN-35 (antibody, human IgG1, V domains shown)
VH: EVQLVESGGGSVRPGRSLKLSCAAAGFTFSDYYMTWVRQAPTKGLEWVASINHDGGGTYYRDSVKGRFTISRDNARSSLYLQMDSLRSEDTGTYYCTTRAGWHWGQGVMVTVSS
VL: DIQMTQSPASLSASLGETVSIECLASEDIYNYLTWYQQKPGKSPQVLIYSASGLQDGVPSRFSGSGSGRQYSLKINGLESEDAATYFCLQDSEYPLTFGSGTKLEIK
notes: chimeric
B6: anti-GPNMB antibody GPN-38 (antibody, human IgG1, V domains shown)
VH: QVQLQQPGAELVRPGTSVRLSCKASGYTFTSYWIHWVKQRPGRGLEWIGVIDPSDSYTNYNQQFNVKATLTVDTSSSAAYMQLSSLTSEDSAVYYCARGLITAVNWYFDVWGTGTTVTVSS
VL: DIQMTQSPASLSTSVGEIVTITCRASENIYSYLTWYQQKQGKSPQLLVYNAKTLAEGVPSRFSGSGSGTQFSLKINSLQPEDFGTYYCQHHYGTPLTFGSGTKLEIK
notes: chimeric
B7: anti-GPNMB antibody GPN-43 (antibody, human IgG1, V domains shown)
VH: EVQLQQSGPELVKPGASVKISCKASGYTFTDYYMNWVRQSHGKSLEWIGDINPYHGGSTYNQKIKVKATLTVDKSSSTAYMELRSLTSEDSAVYYCARNWPYFDYWGQGTTLTVSS
VL: DIQMTQSPASLSASVGETVTITCRASENIYSFLVWYQQKQGKSPQLLVYNAKTLAEGVPSRFSGSGSGTQFSLKISSLQPEDFGSYYCQHHFGTPPYTFGGGTKLEIK
notes: chimeric
B8: anti-GPNMB antibody GPN-61 (antibody, human IgG1, V domains shown)
VH: B4 VH with I69T, E79Q, N85S, Y96F, T102R
VL: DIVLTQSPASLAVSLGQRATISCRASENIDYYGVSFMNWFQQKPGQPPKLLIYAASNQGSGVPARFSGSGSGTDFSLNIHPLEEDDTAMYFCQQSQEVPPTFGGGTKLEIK
notes: chimeric
B9: anti-GPNMB antibody GPN-83 (antibody, V domains shown)
VH: QVQLQESGPGLVKPSETLSLTCTVSGISITTGNYRWSWIRQPPGKGLEWIGYIDYSGTITYNPSLKSRVTITRDTSKNQFSLELSSVTAADTAVYYCARDLTHWYFDVWGQGTLVTVSS
VL: DIVMTQSPDSLAVSLGERATINCKSSRSVDYYGIGFVNWYQQKPGQPPKLLIYATSIQGSGVPDRFSGSGSGTDFTLTISSLQAEDVAVYYCQQQKEVPPTFGGGTKVEIK
B10: anti-GPNMB antibody GPN-86 (antibody, V domains shown)
VH: B9 VH
VL: B9 VL with V37L, I57K
B11: anti-GPNMB antibody GPN-90 (antibody, V domains shown)
VH: B9 VH with S67Q
VL: B9 VL with V37L, I57H
B12: anti-GPNMB antibody GPN-88 (antibody, V domains shown)
VH: B9 VH
VL: B9 VL with V37L, I57H, E97H
B13: anti-GPNMB antibody GPN-87 (antibody, V domains shown)
VH: B9 VH with F106Y
VL: B9 VL with V37L, I57K
B14: anti-GPNMB antibody GPN-85 (antibody, V domains shown)
VH: B9 VH with S67Q
VL: B9 VL with Y32F, V37L, I57H
B15: anti-GPNMB antibody GPN-91 (antibody, V domains shown)
VH: B9 VH
VL: B9 VL with V37L, I57H, V98R
B16: anti-GPNMB antibody GPN-84 (antibody, V domains shown)
VH: B9 VH with F106Y
VL: B9 VL
B17: anti-GPNMB antibody GPN-89 (antibody, V domains shown)
VH: B9 VH with F106Y
VL: B9 VL with V37L, I57H

molecular target: T1, mouse GPNMB endogenously expressed on …; experiment: FACS titration, B16F10 cells
Experimental: Cell-based binding measurements were also performed to measure the apparent affinities of anti-GPNMB antibodies of the present disclosure to cell-surface expressed GPNMB. Serial dilutions of the monoclonal anti-GPNMB antibodies were added to 100,000 Freestyle293-huGPNMB+ or B16F10 cells and allowed to achieve binding equilibrium at 4° C. After addition of fluorescently labeled secondary antibody and brief washing steps, MFI values as a function of titrated antibody concentration was recorded via FACS analysis. Curves were fit using nonlinear regression analysis with Graphpad Prism 6 software.

Binder | EC50 [nM]
B1 | 2.62
B2 | 3.23
B3 | 76.5
B4 | 1.6
B5 | 2.29
B6 | 5.38
B7 | 36.2

molecular target: T2, soluble mouse GPNMB (recombinant …); experiment: SPR Carterra, Ab immobilized
Outline: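 Analyte series of GPNMB extracellular domain (2.5, 7.4, 22, 67, 200, 600 nM) flowed in ascending order, no regeneration, over IgG1 antibodies EDC/NHS-immobilized on an HC200M array. HBS-EP+ plus 0.5 mg/ml BSA as running buffer, two blanks per series. Affinity estimated via high-throughput kinetic fitting.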

Binder | Kd [nM] | koff [s⁻¹] | kon [M⁻¹ s⁻¹]
B1 | 0.4 | 3.7e-05 | 97000
B2 | 0.5 | 5.1e-05 | 100000
B4 | 4.6 | 0.00082 | 190000
B8 | 2.1 | 0.00029 | 130000
B5 | 2.1 | 0.00012 | 56000
B6 | 3.45 | 7.8e-05 | 23000

molecular target: T1, mouse GPNMB endogenously expressed on …; experiment: FACS titration, B16F10 cells; remark: another data set of the same source
Experimental: (§1) Affinity matured anti-GPNMB antibodies of the present disclosure were examined to determine their ability to bind human and mouse GPNMB expressed on FS293-huGPNMB+ or B16F10 cells, respectively. Cell-based affinity measurements were performed to ascertain the apparent affinities of anti-GPNMB antibodies to cell-surface expressed GPNMB. Serial dilutions of anti-GPNMB antibodies of the present disclosure were added to 100,000 FS293-huGPNMB+ or B16F10 cells and allowed to achieve binding equilibrium at 4° C. After addition of fluorescently labeled secondary antibody and brief washing steps, MFI values as a function of titrated antibody concentration were recorded via FACS analysis. Equilibrium binding curves were fit using nonlinear regression analysis with Graphpad Prism 6 software.

Binder | EC50 [nM]
B9 | 0.293
B10 | 0.178
B11 | 0.416
B12 | 0.262
B13 | 0.37
B14 | 0.317
B15 | 0.273
B16 | 0.33
B17 | 0.443

molecular target: T3, full-length untagged human GPNMB …; experiment: FACS titration, FS293-huGPNMB+ cells
Experimental: as §1

Binder | EC50 [nM]
B9 | 0.203
B10 | 0.203
B11 | 0.148
B12 | 0.192
B13 | 0.317
B14 | 0.385
B15 | 0.24
B16 | 0.241
B17 | 0.167
